# Experimental data from patent US9273304B2, “Inactivation method” (Thermo Fisher Scientific Baltics UAB, priority 2006, dated 2016).
# T1: Pfu DNA polymerase (Pyrococcus furiosus, UniProt P61875)
# T1 construct: Native Pfu DNA polymerase was used at initial concentration of 1.065 mg/ml
# T1 sequence (P61875 1-775): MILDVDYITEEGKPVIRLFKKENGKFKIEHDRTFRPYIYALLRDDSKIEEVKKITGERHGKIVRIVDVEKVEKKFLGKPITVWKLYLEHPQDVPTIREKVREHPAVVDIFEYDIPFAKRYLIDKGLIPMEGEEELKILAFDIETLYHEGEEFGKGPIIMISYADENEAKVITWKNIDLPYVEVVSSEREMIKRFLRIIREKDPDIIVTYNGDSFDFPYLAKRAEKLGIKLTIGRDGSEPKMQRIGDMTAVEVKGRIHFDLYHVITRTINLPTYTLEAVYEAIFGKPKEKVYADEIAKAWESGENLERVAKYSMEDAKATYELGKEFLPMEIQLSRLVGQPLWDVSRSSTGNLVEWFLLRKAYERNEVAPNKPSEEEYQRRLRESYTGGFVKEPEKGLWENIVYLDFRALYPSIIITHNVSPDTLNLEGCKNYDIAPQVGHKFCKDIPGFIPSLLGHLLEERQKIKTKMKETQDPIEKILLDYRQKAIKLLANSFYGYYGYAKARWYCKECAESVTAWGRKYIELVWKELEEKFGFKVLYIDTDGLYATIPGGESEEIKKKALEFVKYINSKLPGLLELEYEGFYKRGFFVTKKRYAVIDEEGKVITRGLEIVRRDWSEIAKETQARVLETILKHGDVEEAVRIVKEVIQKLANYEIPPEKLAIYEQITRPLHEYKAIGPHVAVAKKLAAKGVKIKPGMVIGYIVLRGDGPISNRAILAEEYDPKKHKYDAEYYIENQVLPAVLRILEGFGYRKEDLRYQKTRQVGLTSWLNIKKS
# B1: Pfu DNA polymerase modified with N-etoxycarbonyl-2,3-dimethylmaleinimide: Native Pfu DNA polymerase reversibly inactivated with N-ethoxycarbonyl-2,3-dimethylmaleinimide, molar ratios 1/200 and 1/800 (protein, UniProt P61875 1-775, looked up)
# DNA polymerase: MILDVDYITEEGKPVIRLFKKENGKFKIEHDRTFRPYIYALLRDDSKIEEVKKITGERHGKIVRIVDVEKVEKKFLGKPITVWKLYLEHPQDVPTIREKVREHPAVVDIFEYDIPFAKRYLIDKGLIPMEGEEELKILAFDIETLYHEGEEFGKGPIIMISYADENEAKVITWKNIDLPYVEVVSSEREMIKRFLRIIREKDPDIIVTYNGDSFDFPYLAKRAEKLGIKLTIGRDGSEPKMQRIGDMTAVEVKGRIHFDLYHVITRTINLPTYTLEAVYEAIFGKPKEKVYADEIAKAWESGENLERVAKYSMEDAKATYELGKEFLPMEIQLSRLVGQPLWDVSRSSTGNLVEWFLLRKAYERNEVAPNKPSEEEYQRRLRESYTGGFVKEPEKGLWENIVYLDFRALYPSIIITHNVSPDTLNLEGCKNYDIAPQVGHKFCKDIPGFIPSLLGHLLEERQKIKTKMKETQDPIEKILLDYRQKAIKLLANSFYGYYGYAKARWYCKECAESVTAWGRKYIELVWKELEEKFGFKVLYIDTDGLYATIPGGESEEIKKKALEFVKYINSKLPGLLELEYEGFYKRGFFVTKKRYAVIDEEGKVITRGLEIVRRDWSEIAKETQARVLETILKHGDVEEAVRIVKEVIQKLANYEIPPEKLAIYEQITRPLHEYKAIGPHVAVAKKLAAKGVKIKPGMVIGYIVLRGDGPISNRAILAEEYDPKKHKYDAEYYIENQVLPAVLRILEGFGYRKEDLRYQKTRQVGLTSWLNIKKS
# modifications: modified with dimethylmaleinimide reagent
# Tests used:
# Taq DNA polymerase = Taq DNA polymerase (Thermus aquaticus, UniProt P19821); test: Polymerase activity assay: incorporation of [3H]-dTTP into the polynucleotide adsorbed on DE-81 in 30 min at 70° C.; format: biochemical; conditions: aqueous solution
# Chain of Taq DNA polymerase (P19821 whole entry): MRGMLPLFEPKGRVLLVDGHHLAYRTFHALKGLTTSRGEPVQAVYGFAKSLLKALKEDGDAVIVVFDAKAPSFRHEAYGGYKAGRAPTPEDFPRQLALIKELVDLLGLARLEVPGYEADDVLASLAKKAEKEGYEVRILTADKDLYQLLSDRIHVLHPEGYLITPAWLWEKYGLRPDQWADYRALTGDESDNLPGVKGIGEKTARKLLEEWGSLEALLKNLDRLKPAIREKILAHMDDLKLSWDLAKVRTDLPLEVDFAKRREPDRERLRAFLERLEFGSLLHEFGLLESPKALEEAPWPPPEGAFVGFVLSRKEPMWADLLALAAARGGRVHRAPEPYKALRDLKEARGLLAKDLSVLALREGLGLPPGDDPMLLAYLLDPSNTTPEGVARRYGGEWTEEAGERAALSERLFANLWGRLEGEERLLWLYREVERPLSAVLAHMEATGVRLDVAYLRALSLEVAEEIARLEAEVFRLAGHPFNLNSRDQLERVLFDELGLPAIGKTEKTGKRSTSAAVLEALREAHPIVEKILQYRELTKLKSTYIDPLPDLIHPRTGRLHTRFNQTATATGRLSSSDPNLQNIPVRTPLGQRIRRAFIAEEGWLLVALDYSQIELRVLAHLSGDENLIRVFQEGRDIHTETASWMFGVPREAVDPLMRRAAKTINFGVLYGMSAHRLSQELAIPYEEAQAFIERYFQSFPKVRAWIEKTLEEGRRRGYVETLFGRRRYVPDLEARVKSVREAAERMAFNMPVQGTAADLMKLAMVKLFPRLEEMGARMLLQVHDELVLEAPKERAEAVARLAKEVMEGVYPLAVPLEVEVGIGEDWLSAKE
# Protocol: The measure of the enzyme activity was incorporation of [^3H]-dTTP into polynucleotide fraction. One unit of polymerase activity is defined as the enzyme amount which incorporates 10 nmoles of deoxyribonucleotides into the polynucleotide adsorbed on DE-81 in 30 min at 70° C.
# For activity assays, Taq DNA polymerase was diluted up to 4 u/ml with the dilution buffer of the following composition: 20 mM Tris-HCl (pH 8.8 at 25° C.), 1 mM EDTA, 1 mM DTT, and BSA (0.1 mg/ml). Reactions were carried out at 70° C. for 30 min with 5 μl of the diluted enzyme in 50 μl of the reaction buffer of the following composition: 67 mM Tris-HCl (pH 8.8 at 25° C.), 50 mM NaCl, 6.7 mM MgCl2, 1 mM DTT, and BSA (0.1 mg/ml). The reaction buffer was supplemented with 0.2 mM dNTP, [3H]-dTTP (0.4 MBq/ml) and 0.75 mM activated DNA from calf thymus.
# Activity of the modified enzymes was measured either with the pre-incubation step, or without it, for 10 min at 95° C. in the pre-heating buffer of the following composition: 20 mM Tris-HCl (pH 8.25 at 25° C.), 100 mM KCl, 2 mM MgCl2, 0.5% Tween 20, 0.5% Nonidet P40, and 16% glycerol.
# (§1) Aliquots (35 μl) of the enzyme solution were mixed with 2.25 μl aliquots of the N-ethoxycarbonyl-2,3-dimethylmaleinimide solutions described above resulting in the following molar ratios of Taq DNA polymerase to N-ethoxycarbonyl-2,3-dimethylmaleinimide: 1/1280 1/640, 1/320, 1/160, 1/110, 1/80, 1/40. The mixtures were incubated for 20 hours at 4° C. to modify the Taq DNA polymerase. Control samples, in which the enzyme was left unmodified (e.g., the ratio was 1/0), were obtained by mixing the Taq DNA polymerase with a 2.25 μl aliquot of DMF. These control samples were incubated under the same conditions as the modified ones.
# The samples of the unmodified Taq DNA polymerase and the modified Taq DNA polymerases were diluted 250-fold in the pre-heating buffer (see Example 2) and activities of the modified enzyme were measured both before heat-reactivation and after it, as described in the Example 2. Activities of both inactivated and heat-reactivated DNA polymerases were determined as described in the Example 2, and the data were normalized to activity of the unmodified Taq DNA polymerase
# Aliquots (20.6 μl) of the diluted enzyme solution were mixed with 1 μl of N-isobutoxycarbonyl-2,3-dimethylmaleinimide solutions described above resulting in different molar ratios of Taq DNA polymerase to N-isobutoxycarbonyl-2,3-dimethylmaleinimide (1/320, 1/160, 1/80 and 1/40). The mixtures were incubated 20 hours at 4° C. to modify the Taq DNA polymerase. Control samples, in which the enzyme was left unmodified (e.g., the ratio was 1/0), were obtained by mixing the Taq DNA polymerase with a 1 μl aliquot of DMF. These control samples were incubated under the same conditions as the modified ones. The heat-reactivation of the modified enzymes was performed as described in the Example 3.
# Pfu DNA polymerase = target: T1, Pfu DNA polymerase; test: Polymerase activity assay: incorporation of [3H]-dTTP into the polynucleotide adsorbed on DE-81 in 30 min at 50° C. or 72° C.; format: biochemical; conditions: aqueous solution
# Protocol: as §1, with “A set of N-ethoxycarbonyl-2,3-dimethylmaleinimide solutions (72 mM, 18 mM) was prepared by serial dilutions of the 720 mM stock in N,N dimethylformamide (DMF). Aliquots” for “Aliquots”, “(25” for “(35”, “1” for “2.25”, “Pfu” for “Taq”, “1/800, 1/200.” for “1/1280 1/640, 1/320, 1/160, 1/110, 1/80, 1/40.”
# The samples of the unmodified Pfu DNA polymerase and the modified Pfu DNA polymerases were diluted in the pre-heating buffer (see Example 2) either 9-fold for measurements at 50° C., or 24-fold for measurements at 72° C. (see Example 2). Activities of the modified enzymes were measured either with the pre-incubation step, or without it, for 10 min at 95° C.
# For activity assays, Pfu DNA polymerase was diluted up to 11 u/ml (91 u/ml for measurements at 50° C.) in the dilution buffer (see Example 2). Reactions were carried out either at 50° C., or at 72° C. for 30 min. Aliquots (5 μl) of the diluted enzyme were added to 50 μl of the reaction buffer of the following composition: 20 mM Tris-HCl (pH 8.8 at 25° C.), 10 mM (NH4)2SO4, 10 mM KCl, 2 mM MgCl2, 0.1% Triton X-100, and BSA (0.1 mg/ml) supplemented with, 0.2 mM dNTP, [3H]-dTTP (0.4 MBq/ml) and 0.75 mM activated DNA from calf thymus.
# [1] = molar ratio Taq DNA polymerase/N-iso-butoxycarbonyl-2,3-dimethylmaleinimide 1/40
# [2] = molar ratio Taq DNA polymerase/N-iso-butoxycarbonyl-2,3-dimethylmaleinimide 1/80
# [3] = molar ratio Taq DNA polymerase/N-iso-butoxycarbonyl-2,3-dimethylmaleinimide 1/160
# [4] = molar ratio Taq DNA polymerase/N-iso-butoxycarbonyl-2,3-dimethylmaleinimide 1/320
# [5] = molar ratio Pfu/N-etoxycarbonyl-2,3-dimethylmaleinimide 1/200
# [6] = molar ratio Pfu/N-etoxycarbonyl-2,3-dimethylmaleinimide 1/800
Molecule,Activity at 70° C. (%) After 10 min. preheating at 95° C. (Taq DNA polymerase; [1]),Activity at 70° C. (%) Without preheating at 95° C. (Taq DNA polymerase; [1]),Activity at 70° C. (%) After 10 min. preheating at 95° C. (Taq DNA polymerase; [2]),Activity at 70° C. (%) Without preheating at 95° C. (Taq DNA polymerase; [2]),Activity at 70° C. (%) After 10 min. preheating at 95° C. (Taq DNA polymerase; [3]),Activity at 70° C. (%) Without preheating at 95° C. (Taq DNA polymerase; [3]),Activity at 70° C. (%) After 10 min. preheating at 95° C. (Taq DNA polymerase; [4]),Activity at 70° C. (%) Without preheating at 95° C. (Taq DNA polymerase; [4]),Activity at 50° C. (%) After 10 min. preheating at 95° C. (Pfu DNA polymerase; [5]),Activity at 50° C. (%) Without preheating at 95° C. (Pfu DNA polymerase; [5]),Activity at 72° C. (%) After 10 min. preheating at 95° C. (Pfu DNA polymerase; [5]),Activity at 50° C. (%) After 10 min. preheating at 95° C. (Pfu DNA polymerase; [6]),Activity at 50° C. (%) Without preheating at 95° C. (Pfu DNA polymerase; [6]),Activity at 72° C. (%) After 10 min. preheating at 95° C. (Pfu DNA polymerase; [6])
"Taq DNA polymerase treated with N-iso-butoxycarbonyl-2,3-dimethylmaleinimide: Recombinant Taq DNA polymerase modified with N-isobutoxycarbonyl-2,3-dimethylmaleinimide in aqueous solution, molar ratios 1/40 to 1/320",~90%,~50%,~100%,~40%,~80%,~30%,~40%,~10%,–,–,–,–,–,–
B1,–,–,–,–,–,–,–,–,~100%,~20%,~100%,~100%,~0%,~90%
